The nature of one data set: physchem. The note with it: octanol/water.
Substrate in data set [1]: COCc1c(CO)cnc(C)c1O
Description: (§1) Activity at human PKH kinase expressed in Escherichia coli by affinity chromatography
The note with it: Homo sapiens.

Substrate in data set [2]: Cc1ncc(CO)c(C=O)c1O
Description: as §1
The conditions noted are these: Homo sapiens.

Substrate in data set [3]: Cc1ncc(CO)c(CN)c1O
Description: as §1
The note with it: Homo sapiens.

Substrate in data set [4]: Cc1ncc(CO)c(CO)c1O
Description: as §1
The note with it: Homo sapiens.

Description for physchem: Lipophilicity, log P of the compound

For orientation: logP means the decadic logarithm of the partition coefficient of the neutral form, usually between octanol and water. Regarding `Cc1ncc(CO)c(C=O)c1O` [PYRIDOXAL], the logP in the data set “physchem” was -1.18.

B1: Pyridoxal kinase (Homo sapiens), O00764 (protein)
chain: MEEECRVLSIQSHVIRGYVGNRAATFPLQVLGFEIDAVNSVQFSNHTGYAHWKGQVLNSDELQELYEGLRLNNMNKYDYVLTGYTRDKSFLAMVVDIVQELKQQNPRLVYVCDPVLGDKWDGEGSMYVPEDLLPVYKEKVVPLADIITPNQFEAELLSGRKIHSQEEALRVMDMLHSMGPDTVVITSSDLPSPQGSNYLIVLGSQRRRNPAGSVVMERIRMDIRKVDAVFVGTGDLFAAMLLAWTHKHPNNLKVACEKTVSTLHHVLQRTIQCAKAQAGEGVRPSPMQLELRMVQSKRDIEDPEIVVQATVL
As a reminder, the Km is the substrate concentration at which the rate is half of its maximum. On to B1, for which the Km came to 5 µM in data set [1], 59 µM in data set [2], 130 µM in data set [3] and 9.9 µM in data set [4].

The values above are taken from ChEMBL document CHEMBL1154868 (J Nat Prod, 2010).
